Test results: patent US20190071493A1 (SCHOLAR ROCK, published 2019)

T1: proTGFβ3 (Homo sapiens (Human), UniProt P10600 24-412)
T1 sequence: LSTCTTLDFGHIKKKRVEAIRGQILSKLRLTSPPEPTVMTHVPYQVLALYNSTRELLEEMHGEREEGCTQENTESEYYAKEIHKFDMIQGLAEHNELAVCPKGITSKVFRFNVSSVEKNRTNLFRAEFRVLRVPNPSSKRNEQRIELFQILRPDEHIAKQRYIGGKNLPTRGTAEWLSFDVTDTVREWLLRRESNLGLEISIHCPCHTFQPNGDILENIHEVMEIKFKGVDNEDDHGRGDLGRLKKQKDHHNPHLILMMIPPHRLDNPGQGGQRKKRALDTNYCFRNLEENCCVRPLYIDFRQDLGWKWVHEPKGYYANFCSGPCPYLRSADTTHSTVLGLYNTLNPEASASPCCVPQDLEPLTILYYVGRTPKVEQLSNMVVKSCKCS

T2: proTGFβ2 (Chlorocebus aethiops (Green monkey) …, UniProt P61811 20-414)
T2 sequence: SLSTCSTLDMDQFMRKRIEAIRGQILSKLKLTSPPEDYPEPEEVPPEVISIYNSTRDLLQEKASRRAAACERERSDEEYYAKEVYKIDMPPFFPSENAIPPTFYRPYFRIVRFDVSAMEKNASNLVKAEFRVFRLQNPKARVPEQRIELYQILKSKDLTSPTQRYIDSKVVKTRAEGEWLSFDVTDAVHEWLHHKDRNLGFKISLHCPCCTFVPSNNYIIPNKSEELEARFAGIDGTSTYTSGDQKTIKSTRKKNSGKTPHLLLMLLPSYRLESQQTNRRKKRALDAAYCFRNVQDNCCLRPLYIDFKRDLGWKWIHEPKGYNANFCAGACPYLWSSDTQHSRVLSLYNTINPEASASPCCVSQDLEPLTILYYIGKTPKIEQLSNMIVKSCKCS


Tests used:
proTGFβ3 = target: T1, proTGFβ3; assay: ELISA
proTGFβ2 = target: T2, proTGFβ2; assay: ELISA
[1] = target: rat LTBP1-proTGFβ1 complex (rat, UniProt Q00918 339-1712; P17246 30-390); assay: Octet (BLI) binding assay as in Table 6
Protocol: a. Dilute both antibodies to 50 μg/mL in 300 μl of 1x buffer in row A. b. Add 200 μl of buffer to the rest of each column c. Transfer 100 μl down the column to make 3-fold dilutions

Chain of rat LTBP1-proTGFβ1 complex (Q00918 339-1712, chain 1 of 2): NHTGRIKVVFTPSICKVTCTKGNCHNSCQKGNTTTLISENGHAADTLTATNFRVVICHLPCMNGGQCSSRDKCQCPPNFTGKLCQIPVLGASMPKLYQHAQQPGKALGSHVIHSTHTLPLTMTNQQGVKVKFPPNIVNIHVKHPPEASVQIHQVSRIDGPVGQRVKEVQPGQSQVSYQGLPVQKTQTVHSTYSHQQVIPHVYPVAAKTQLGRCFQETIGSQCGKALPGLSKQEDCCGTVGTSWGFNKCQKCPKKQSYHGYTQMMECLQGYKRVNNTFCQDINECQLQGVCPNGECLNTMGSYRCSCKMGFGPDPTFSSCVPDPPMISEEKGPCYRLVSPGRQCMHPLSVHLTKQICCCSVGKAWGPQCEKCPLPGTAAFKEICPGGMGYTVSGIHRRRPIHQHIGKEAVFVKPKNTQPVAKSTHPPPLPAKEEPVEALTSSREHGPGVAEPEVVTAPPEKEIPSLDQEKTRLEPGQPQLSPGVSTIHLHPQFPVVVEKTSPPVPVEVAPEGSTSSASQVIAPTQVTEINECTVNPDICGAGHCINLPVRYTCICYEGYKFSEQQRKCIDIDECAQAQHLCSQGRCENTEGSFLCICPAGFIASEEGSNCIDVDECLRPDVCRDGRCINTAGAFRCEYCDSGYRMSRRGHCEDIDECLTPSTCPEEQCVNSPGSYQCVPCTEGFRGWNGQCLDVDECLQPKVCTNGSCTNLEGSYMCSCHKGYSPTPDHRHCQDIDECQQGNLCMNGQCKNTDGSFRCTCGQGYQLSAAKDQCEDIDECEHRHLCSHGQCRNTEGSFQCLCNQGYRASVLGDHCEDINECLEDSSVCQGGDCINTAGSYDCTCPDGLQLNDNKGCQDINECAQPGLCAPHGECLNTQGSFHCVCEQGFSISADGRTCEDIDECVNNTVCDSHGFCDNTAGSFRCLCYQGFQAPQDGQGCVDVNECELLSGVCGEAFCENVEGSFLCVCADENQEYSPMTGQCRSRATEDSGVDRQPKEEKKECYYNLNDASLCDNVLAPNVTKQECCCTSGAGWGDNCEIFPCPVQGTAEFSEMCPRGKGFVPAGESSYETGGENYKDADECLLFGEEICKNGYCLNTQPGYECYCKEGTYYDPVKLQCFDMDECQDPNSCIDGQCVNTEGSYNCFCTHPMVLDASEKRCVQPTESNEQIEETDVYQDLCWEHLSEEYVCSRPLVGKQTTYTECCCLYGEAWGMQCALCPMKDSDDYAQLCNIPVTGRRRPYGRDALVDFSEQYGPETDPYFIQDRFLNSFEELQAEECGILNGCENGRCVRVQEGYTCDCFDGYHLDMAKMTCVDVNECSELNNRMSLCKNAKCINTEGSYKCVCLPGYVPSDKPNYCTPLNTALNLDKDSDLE
Chain of rat LTBP1-proTGFβ1 complex (P17246 30-390, chain 2 of 2): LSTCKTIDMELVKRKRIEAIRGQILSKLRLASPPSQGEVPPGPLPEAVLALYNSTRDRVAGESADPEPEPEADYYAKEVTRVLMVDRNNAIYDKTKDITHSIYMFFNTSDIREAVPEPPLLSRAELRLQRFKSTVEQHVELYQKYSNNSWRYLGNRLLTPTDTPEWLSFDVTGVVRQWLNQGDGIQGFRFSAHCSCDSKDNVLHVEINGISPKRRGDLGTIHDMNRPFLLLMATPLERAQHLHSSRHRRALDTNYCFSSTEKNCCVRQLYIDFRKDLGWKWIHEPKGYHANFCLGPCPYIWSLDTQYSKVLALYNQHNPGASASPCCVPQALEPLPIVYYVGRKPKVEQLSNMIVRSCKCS

binding result (proTGFβ3)	binding result (proTGFβ2)	binding result [1]	Binder
no binding	no binding	–	Ab2 (antibody, V domains shown, also called antibody Ab2; clone Ab2) VH: EVQLVQSGAEMKKPGESLKISCKGSGYNFASDWIGWVRQTPGKGLEWMGVIYPGDSDTRYSASFQGQVTISADKSINTAYLQWSSLKASDTAMYYCASAAGIAAAGHVTAFDIWGQGTMVTVSS VL: not shown
no binding	no binding	no binding	Ab1 (antibody, human IgG4 S228P, lambda, V domains shown, also called antibody Ab1; clone Ab1) VH: EVQLVESGGGLVQPGRSLRLSCAASGFTFSSYGMHWVRQAPGKGLEWVAVISYDGSNKYYADSVKGRFTISRDNSKNTLYLQMNSLRAEDTAVYYCARDIRPYGDYSAAFDIWGQGTLVTVSS VL: NFMLTQPHSVSESPGKTVTISCTGSSGSIASNYVQWYQQRPGSAPSIVIFEDNQRPSGAPDRFSGSIDSSSNSASLTISGLKTEDEADYYCQSYDSSNHGGVFGGGTQLTVLG
